The target in assay [1] is T1, human IL-11 (human, UniProt P20809 22-199).
T1 sequence: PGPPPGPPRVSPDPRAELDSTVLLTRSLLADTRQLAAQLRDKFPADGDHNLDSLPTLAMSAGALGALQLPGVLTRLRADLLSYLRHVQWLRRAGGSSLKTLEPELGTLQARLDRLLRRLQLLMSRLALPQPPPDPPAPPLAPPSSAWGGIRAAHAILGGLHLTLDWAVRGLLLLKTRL
The assay can be described thus: cell-based or functional assay.

The target of assay [2] is T2, murine IL-11 (mouse, UniProt P47873 22-199).
T2 sequence: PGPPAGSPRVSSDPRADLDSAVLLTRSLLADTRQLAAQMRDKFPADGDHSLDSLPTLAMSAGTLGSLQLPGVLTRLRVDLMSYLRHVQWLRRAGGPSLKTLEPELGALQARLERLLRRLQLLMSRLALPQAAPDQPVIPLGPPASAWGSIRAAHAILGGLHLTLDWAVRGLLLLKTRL
Briefly: cell-based or functional assay.

Assay [3] deals with T3, cynomolgus IL-11 (cynomolgus, UniProt P20808 22-199).
T3 sequence: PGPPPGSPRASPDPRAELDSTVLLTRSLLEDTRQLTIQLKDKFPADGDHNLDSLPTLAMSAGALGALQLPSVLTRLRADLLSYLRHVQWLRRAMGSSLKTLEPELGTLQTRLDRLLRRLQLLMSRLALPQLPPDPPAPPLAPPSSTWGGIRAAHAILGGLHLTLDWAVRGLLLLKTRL
The assay can be described thus: cell-based or functional assay.

In assay [4] the target is T4, rat IL-11 (rat, UniProt Q99MF5 22-199).
T4 sequence: T2 sequence with S50N, L84F, G94A, V137A, I138V
The assay can be described thus: cell-based or functional assay.

Assay [5] has as its target T2, murine IL-11. Briefly: SPR (Biacore), 37 C, antibody captured via anti-Fc, IL-11 as analyte. As for the experimental part:
(§1) To assess the binding kinetics and affinity of anti-IL-11 bispecific antibodies as well as their species cross-reactivity profile, binding assays were conducted using surface plasmon resonance (SPR). […] Antibodies were captured either via anti-human Fc IgGs (“Human antibody capture kit”, Order No. BR100839, Cytiva) or via anti-mouse Fc IgGs (“Mouse antibody capture kit, Order No. BR100383, Cytiva) covalently amine coupled to a Series S CM5 sensor chip (Cytiva) depending on the isotype. The amine coupling was carried out according to the manufacturer's instructions using 1-ethyl-3-(3-dimethylaminopropyl) carbodiimide hydrochloride (EDC), N-hydroxysuccinimide (NHS) and ethanolamine HCl, pH 8.5 (“Amine Coupling Kit” BR-1000-50, Cytiva.). Human, mouse, cynomolgus or rat IL-11 was used as analyte at several dilutions within the concentration range from 0.05-200 nM. For binding assays with only one concentration 200 nM IL-11 was used. The sensor surface was regenerated with glycine pH 1.7 after each antigen injection. Obtained sensorgrams were double referenced (subtraction of reference flow cell signal and buffer injection) and were fitted to a 1:1 Langmuir binding model to derive kinetic data using the Biacore T200 Evaluation software or the Biacore Insight software.
(§2) If no value is reported, there was either no binding or very low binding and multiphasic binding behavior.
On the technique in general: Surface plasmon resonance follows binding to a sensor surface in real time, without labels.

Assay [6] addresses T5, human IL2Ra (human, UniProt P01589 22-240, limits assumed).
T5 construct: coated on the ELISA plate; also called IL-2 receptor alpha
T5 sequence (looked up): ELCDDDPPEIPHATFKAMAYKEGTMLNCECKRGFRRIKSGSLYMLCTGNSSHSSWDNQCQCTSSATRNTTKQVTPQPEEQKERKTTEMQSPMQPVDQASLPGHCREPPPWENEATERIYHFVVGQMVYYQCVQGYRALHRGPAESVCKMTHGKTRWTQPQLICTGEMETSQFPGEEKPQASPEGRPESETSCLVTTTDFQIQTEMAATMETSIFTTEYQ
The assay can be described thus: ELISA on coated IL2Ra, signal ratio to isotype control TPP-10159 at 3.3E-7 M antibody. A general note: In an ELISA, binding on a coated surface is turned into a signal by an enzyme label.

The target of assay [7] is T3, cynomolgus IL-11. Briefly: SPR (Biacore), 37 C, antibody captured via anti-Fc, IL-11 as analyte. As for the experimental part: as §1, §2
The target of assay [8] is T4, rat IL-11. The description is as above. As for the experimental part: as §1, §2
Assay [9] concerns the target T1, human IL-11. Described as above. As for the experimental part: as §1, §2

Changes are numbered by the printed parent chain.

B1: TPP-18087 (antibody, mouse IgG1, V domains shown)
VH: EVQLLESGGGLVQPGGSLRLSCAASGFTFSHYDMNWLRQAPGKGLEWVGVISYDGSNKFYADFVKGRFTISRDNSKNTLYLQMNSLRAEDTAVYYCARTPGSHFDYWGQGTLVTVSS
VL: QSVLTQPPSASGTPGQRVTISCSGSSSNIGNNAVNWYQQLPGTAPKLLIYYDDLLPSGVPDRFSGSKSGTSASLAISGLRSEDEADYYCSAWDDSLNGVVFGGGTKLTVLG
notes: mIgG1, Lambda
What is called Kd is the concentration at which binding is half-saturated. A high value points to a looser complex. With B1, the “Efficacy (%), Stat3 reporter gene assay” value came to 47.8% in assay [1], 59.4% in assay [2], 47.7% in assay [3] and 31.8% in [4]. Besides, the “IC50, Stat3 reporter gene assay” value in [2] came to 16 nM. The equilibrium dissociation constant (Kd) in [5] was 41 nM. Also, in assay [6], the “Antibody/Isotype Control Ratio of IL-2Ra Binding Signals” value was 0.6 ratio.

B2: TPP-18068 (antibody, mouse IgG1)
heavy: EVQLLESGGGLVQPGGSLRLSCAASGFTFSSYGMHWVRQAPGKGLEWVSVISYDGSYKYYADSVKGRFTISRDNSKNTLYLQMNSLRAEDTAVYYCAAGVPDYWGQGTLVTVSSAKTTPPSVYPLAPGSAAQTNSMVTLGCLVKGYFPEPVTVTWNSGSLSSGVHTFPAVLQSDLYTLSSSVTVPSSTWPSETVTCNVAHPASSTKVDKKIVPRDCGCKPCICTVPEVSSVFIFPPKPKDVLTITLTPKVTCVVVDISKDDPEVQFSWFVDDVEVHTAQTQPREEQFNSTFRSVSELPIMHQDWLNGKEFKCRVNSAAFPAPIEKTISKTKGRPKAPQVYTIPPPKEQMAKDKVSLTCMITDFFPEDITVEWQWNGQPAENYKNTQPIMDTDGSYFVYSKLNVQKSNWEAGNTFTCSVLHEGLHNHHTEKSLSHSPGK
light: QSVLTQPPSASGTPGQRVTISCTGSSSNIGAGYDVHWYQQLPGTAPKLLIYSNNERPSGVPDRFSGSKSGTSASLAISGLRSEDEADYYCAAWDDSLNGPVFGGGTKLTVLGQPKSSPSVTLFPPSSEELETNKATLVCTITDFYPGVVTVDWKVDGTPVTQGMETTQPSKQSNNKYMASSYLTLTARAWERHSSYSCQVTHEGHTVEKSLSRADCS
notes: mIgG1, Lambda
B2: the “Efficacy (%), Stat3 reporter gene assay” value in assay [1] was 46.1%; in [2], 93.6%; in assay [3], 70%; in [4], 94%. The “IC50, Stat3 reporter gene assay” value came to 6.5 nM in [1], 1.2 nM in [2], 4.1 nM in assay [3] and 1.8 nM in assay [4]. In addition, the figures for the Kd in assay [5], in [7] and in [8] were 0.41 nM, 5 nM and 0.58 nM, respectively. Moreover, the “Antibody/Isotype Control Ratio of IL-2Ra Binding Signals” value in [6] stood at 377 ratio.

B3: TPP-29697 (bispecific antibody, IgG1)
chain 1: QVQLVESGGGVVQPGRSLRLSCAASGFTFSHYDMHWVRQAPGKGLEWVAVISYHGSVKFYADSVKGRFTISRDNSKNTLYLQMNSLRAEDTAVYYCARTPGFHFDYWGQGTLVTVSSGGGGSGGGGSGGGGSQSVLTQPPSASGTPGQRVTISCSGSSSNIGSNYVSWYQQLPGTAPKLLIYYDDLRPSGVPDRFSGSKSGTSASLAISGLRSEDEADYYCSAWDDSLSGVVFGGGTKLTVLGGGGSGGGGSGGGGSGVECPPCPAPPVAGPSVFLFPPKPKDTLMISRTPEVTCVVVGVSHEDPEVKFNWYVDGVEVHNAKTKPREEQYNSTYRVVSVLTVLHQDWLNGKEYKCKVSNKQLPSPIEKTISKAKGQPREPQVYTLPPCRDELTKNQVSLWCLVKGFYPSDIAVEWESNGQPENNYKTTPPVLDSDGSFFLYSKLTVDKSRWQQGNVFSCSVMHEALHNHYTQKSLSLSPGK
chain 2: EVQLLESGGGLVQPGGSLRLSCAASGFTFSSYGMHWVRQAPGKGLEWVAVISYDGSYKYYADSVKGRFTISRDNSKNTLYLQMNSLRAEDTAVYYCAAGVPDYWGQGTLVTVSSGGGGSGGGGSGGGGSQSVLTQPPSASGTPGQRVTISCSGSSSNIGSDYDVHWYQQLPGTAPKLLIYSNEERPSGVPDRFSGSKSGTSASLAISGLRSEDEADYYCSAWDSSLSGPVFGGGTKLTVLGGGGSGGGGSGGGGSGVECPPCPAPPVAGPSVFLFPPKPKDTLMISRTPEVTCVVVGVSHEDPEVKFNWYVDGVEVHNAKTKPREEQYNSTYRVVSVLTVLHQDWLNGKEYKCKVSNKQLPSPIEKTISKAKGQPREPQVCTLPPSRDELTKNQVSLSCAVKGFYPSDIAVEWESNGQPENNYKTTPPVLDSDGSFFLVSKLTVDKSRWQQGNVFSCSVMHEALHNHYTQKSLSLSPGK
notes: scFv-kih-hIgG1 with Fc-silencing mutations; bispecific comprising CDRs of TPP-29528 and TPP-29519
With B3, the “Efficacy (%), Stat3 reporter gene assay” value in assay [1] was determined as 99.1%; in [2], 99.6%; in [3], 100%; in [4], 97.6%. For the same molecule, the “IC50, Stat3 reporter gene assay” value in assay [1] was 2 nM; in [2] it was 1.4 nM; in [3], 0.75 nM; in assay [4], ~1.2 nM. The Kd in assay [9], in assay [5], in assay [7] and in [8] was < 0.001 nM each time.

B4: TPP-29603 (bispecific antibody, IgG1)
chain 1: QVQLVESGGGVVQPGRSLRLSCAASGFTFSHYDMHWVRQAPGKGLEWVAVISYHGSVKFYADSVKGRFTISRDNSKNTLYLQMNSLRAEDTAVYYCARTPGFHFDYWGQGTLVTVSSGGGGSGGGGSGGGGSQSVLTQPPSASGTPGQRVTISCSGSSSNIGSNYVSWYQQLPGTAPKLLIYYDDLRPSGVPDRFSGSKSGTSASLAISGLRSEDEADYYCSAWDDSLSGVVFGGGTKLTVLGGGGSGGGGSGGGGSGVECPPCPAPPVAGPSVFIFPPKPKDVLTITLTPKVTCVVVDISKDDPEVQFSWFVDDVEVHTAQTQPREEQFNSTFRSVSELPIMHQDWLNGKEFKCRVNSAAFPAPIEKTISKTKGRPKAPQVYTIPPCKEQMAKDKVSLWCMITDFFPEDITVEWQWNGQPAENYKNTQPIMDTDGSYFVYSKLNVQKSNWEAGNTFTCSVLHEGLHNHHTEKSLSHSPGK
chain 2: EVQLLESGGGLVQPGGSLRLSCAASGFTFSSYGMHWVRQAPGKGLEWVAVISYDGSYKYYADSVKGRFTISRDNSKNTLYLQMNSLRAEDTAVYYCAAGVPDYWGQGTLVTVSSGGGGSGGGGSGGGGSQSVLTQPPSASGTPGQRVTISCSGSSSNIGSDYDVHWYQQLPGTAPKLLIYSNEERPSGVPDRFSGSKSGTSASLAISGLRSEDEADYYCSAWDSSLSGPVFGGGTKLTVLGGGGSGGGGSGGGGSGVECPPCPAPPVAGPSVFIFPPKPKDVLTITLTPKVTCVVVDISKDDPEVQFSWFVDDVEVHTAQTQPREEQFNSTFRSVSELPIMHQDWLNGKEFKCRVNSAAFPAPIEKTISKTKGRPKAPQVCTIPPPKEQMAKDKVSLSCAITDFFPEDITVEWQWNGQPAENYKNTQPIMDTDGSYFVVSKLNVQKSNWEAGNTFTCSVLHEGLHNHHTEKSLSHSPGK
notes: scFv-kih-mIgG1; bispecific comprising CDRs of TPP-29528 and TPP-29519
Turning to B4, the “Efficacy (%), Stat3 reporter gene assay” value came to 101% in assay [1], 102% in assay [2], 101% in assay [3] and 99.9% in [4]. Also, the “IC50, Stat3 reporter gene assay” value in assay [1] stood at 4.1 nM; in assay [2], 2 nM; in assay [3], 1.7 nM; in [4], 2 nM. Also, the Kd in [9] is 0.0019 nM; in [5], 0.0017 nM; in assay [7], 0.0022 nM; in assay [8], 0.0034 nM.

The values above are taken from US20240317847A1 (Bayer, published 2024).
